Measurements from patent publication US20220396632A1 (VERSEAU THERAPEUTICS, published 2022).
Non-standard residues stand in square brackets, D forms with d. No end group written: not given here. *: point of attachment. Biotin = O=C1N[C@H]2[C@H](CS[C@H]2CCCCC(=O)*)N1; sY = N[C@@H](Cc1ccc(OS(=O)(=O)O)cc1)C(=O)O

T1: SulfoTyr C4 peptide (not fully specified; Y4, Y7 and Y9 sulfated (SO3); C-terminal biotin)
T1 construct: also called C4 alpha chain peptide; human sulfotyrosinylated C4 peptide
T1 peptide: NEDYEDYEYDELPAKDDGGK

T2: Sulfotyr fibrinogen γ peptide (not fully specified; Y8 and Y12 sulfated (SO3); C-terminal biotin)
T2 construct: also called Fibrinogen gamma peptide; human sulfotyrosinylated fibrinogen peptide
T2 peptide: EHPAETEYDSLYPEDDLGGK

T3: Recombinant human PSGL-1(ECD)-hFc1 (R&D Systems, Cat. 3345-PS) (human, UniProt Q14242 42-305)
T3 construct: Bought; Gln42-Val295 counted on AAC50061; also called PSGL-1-Fc; PSGL-1-hFc1 chimera; not shown: human IgG1 Fc, Pro100-Lys330
T3 sequence: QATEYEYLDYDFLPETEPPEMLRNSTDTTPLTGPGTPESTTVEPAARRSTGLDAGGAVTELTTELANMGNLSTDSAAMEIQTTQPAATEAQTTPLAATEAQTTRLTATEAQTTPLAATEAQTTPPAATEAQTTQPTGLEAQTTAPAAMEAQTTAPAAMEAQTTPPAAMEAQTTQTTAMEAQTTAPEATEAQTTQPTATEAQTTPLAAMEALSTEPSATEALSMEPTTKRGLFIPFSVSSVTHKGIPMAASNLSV

T4: Human fibrinogen protein (ThermoFisher, RP-43142) (human, UniProt P02671 20-629; P02675 31-491; P02679 27-453, limits assumed, natural sulfotyrosines)
T4 construct: mature; Native dimer with 3 pairs of non-identical chains; also called gamma-fibrinogen; γ fibrinogen protein
T4 sequence (looked up) 1: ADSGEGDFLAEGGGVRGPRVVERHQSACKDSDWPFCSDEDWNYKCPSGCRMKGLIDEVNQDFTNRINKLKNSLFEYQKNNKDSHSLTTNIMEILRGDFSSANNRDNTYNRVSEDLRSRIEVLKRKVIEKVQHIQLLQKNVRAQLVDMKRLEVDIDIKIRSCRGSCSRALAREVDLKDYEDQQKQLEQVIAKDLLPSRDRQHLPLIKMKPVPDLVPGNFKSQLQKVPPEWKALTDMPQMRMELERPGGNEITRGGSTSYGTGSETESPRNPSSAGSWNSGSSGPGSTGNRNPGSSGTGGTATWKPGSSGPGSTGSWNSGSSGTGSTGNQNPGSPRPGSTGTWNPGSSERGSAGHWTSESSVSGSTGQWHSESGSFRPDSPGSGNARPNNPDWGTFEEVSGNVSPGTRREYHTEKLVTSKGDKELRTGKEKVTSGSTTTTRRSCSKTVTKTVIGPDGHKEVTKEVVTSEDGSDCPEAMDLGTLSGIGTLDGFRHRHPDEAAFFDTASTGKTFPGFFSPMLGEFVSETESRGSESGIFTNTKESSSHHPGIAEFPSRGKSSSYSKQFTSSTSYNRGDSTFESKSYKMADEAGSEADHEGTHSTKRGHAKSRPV
T4 sequence (looked up) 2: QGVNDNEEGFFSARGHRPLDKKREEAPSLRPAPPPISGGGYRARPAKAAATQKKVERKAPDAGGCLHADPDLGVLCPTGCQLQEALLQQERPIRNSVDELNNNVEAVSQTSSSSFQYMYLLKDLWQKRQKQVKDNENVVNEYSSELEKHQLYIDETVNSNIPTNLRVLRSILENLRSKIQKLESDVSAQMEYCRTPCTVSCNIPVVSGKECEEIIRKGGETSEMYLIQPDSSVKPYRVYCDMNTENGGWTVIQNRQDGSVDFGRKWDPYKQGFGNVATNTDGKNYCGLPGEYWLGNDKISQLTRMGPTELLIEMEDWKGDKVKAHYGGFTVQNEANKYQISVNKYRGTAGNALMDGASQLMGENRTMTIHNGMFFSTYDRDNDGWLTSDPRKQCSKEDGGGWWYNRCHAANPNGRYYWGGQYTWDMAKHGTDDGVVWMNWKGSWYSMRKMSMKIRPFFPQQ
T4 sequence (looked up) 3: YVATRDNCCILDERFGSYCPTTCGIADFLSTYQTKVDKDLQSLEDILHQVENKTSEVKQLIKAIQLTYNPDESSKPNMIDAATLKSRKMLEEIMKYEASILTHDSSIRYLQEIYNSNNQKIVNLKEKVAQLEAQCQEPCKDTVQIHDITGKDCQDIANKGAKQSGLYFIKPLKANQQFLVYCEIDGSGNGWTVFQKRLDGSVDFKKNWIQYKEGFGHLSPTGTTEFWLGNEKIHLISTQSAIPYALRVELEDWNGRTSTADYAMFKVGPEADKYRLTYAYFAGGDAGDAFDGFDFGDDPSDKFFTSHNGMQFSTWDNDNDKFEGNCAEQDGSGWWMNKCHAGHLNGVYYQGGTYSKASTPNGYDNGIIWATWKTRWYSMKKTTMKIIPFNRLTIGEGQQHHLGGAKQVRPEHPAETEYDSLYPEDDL

T5: SulfoCCK biotin peptide (human)
T5 construct: also called sulfotyrosine CCK peptide
T5 peptide: SHRISDRD[sY]MGWMDFGGK(Biotin)

T6: Sulfotyrosine CCR2b biotin peptide (human)
T6 construct: also called CCR2b peptide
T6 peptide: TTFFD[sY]D[sY]GAPSHGGK(Biotin)

T7: Sulfotyrosine D6 biotin peptide (human)
T7 construct: also called D6 peptide
T7 peptide: ENSSFY[sY][sY]D[sY]LDEVAFGGK(Biotin)

T8: Scrambled Y42,52,63(SO3) PSGL-1(42-62) biotin peptide (sulfotyrosine at peptide positions 1, 11 and 22; C-terminal Lys-biotin)
T8 peptide: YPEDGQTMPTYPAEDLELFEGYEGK

T9: Biotin PSGL-1(42-62) peptide, unmodified (human, C-terminal Lys-biotin)
T9 construct: Residues 42-62 followed by GGGK-biotin; also called WT; wild-type
T9 peptide: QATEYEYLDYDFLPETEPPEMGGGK

T10: Biotin Y46,48,51(SO3) PSGL-1(42-62) peptide (human, sulfotyrosine at Y46, Y48 and Y51; C-terminal Lys-biotin)
T10 construct: also called fully sulfated N-terminal PSGL-1 peptide
T10 peptide: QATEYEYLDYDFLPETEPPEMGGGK

B1: 01A11 (antibody, IgG4, V domains shown)
VH: EVKLLESGGGLVQPGGSLRLSCATSGFSFSDYWMSWVRQAPGKGLEWVASIKKDGSEKYYVDSVKGRFTISRDNAKNSLYVQMNSLRAEDTAIYYCVVFGAWGPGTLVTVSS
VL: DIVMTQTPLSLPVTLGQPASISCRSGRSLVYSDGNTYLNWFQQRPGQSPRRLIYKVSNRDSGVPDRFSGGGSGTDFTLKISRVEAEDVAIYYCMQGTHWPPTFGQGTKLEIK
B2: 09B09 (antibody, IgG4, V domains shown)
VH: EVKLLESGGGLVQPGGSLRLSCAASGITFSTYAMMWVRQAPGKGLEWVSGISGSGASRYYADSVKGRFTISRDNSKNMLYLQMNSLRAEDTAVYYCAKKVLGRRKQYFDDWGQGTLVTVSS
VL: DIVMTQSPLSLPVTPGEPASISCRSSQSLLHSNGYNYLDWYLQRPGQSPQLLIYLGSHRASGVPDRFSGSGSGTEHTLKITTVAAEDVGVYYCMQALQSPPTFGQGTRLDIK
B3: 09D11 (antibody, IgG4, V domains shown)
VH: QVQLVESGGGFIQPGGSLRLSCAASGLTFSNYAMTWVRQAPGKGLEWVSTISGGGGNTYYTDSVKGRFTISRDNSKNTLYLQMNSLKAEDTAVYRCAKGLAAALFDYWGQGTLVTVSS
VL: DIVLTQSPDSLPVTPGEPASISCRSSRSLLHSNGHNFLAWYLQKPGQSPHLLIYLGSNRASGVPDRFSGSGSGTDFTLKISRVEAEDVGIYYCMQALQTPITFGQGTRLDIK
B4: 03E05 (antibody, IgG4, V domains shown)
VH: EVKLLESGGDLAQTGGSLRLSCVASGFTFSSYPMSWVRQAPGKGLEWVSAIRRSGATQYADSVKGRFTISRDNSKNTVYLQMNSLRVEDTAVYYCAKGTYDLGQGTLVTVSS
VL: DIVMTQTPLSLPVTLGQPASISCRSSQSLVYSDGNTYLNWFHQRPGQSPRRLIYKVSNRDSGVPDRFSGSGSDTEFTLKISRVEAEDVGVYYCMQATHWPLTFGGGTKVEIK
B5: 01E01 (antibody, V domains shown)
VH: EVQLVQSGGGVVQPGRSLRLSCAASGFTFSSYGMHWVRQAPGKGLEWVAVISYDGSNKYYADSVKGRFTISRDNSKNTLYLQMHSLRAEDTAVYYCANLVGTTNSWGQGTLVTVSS
VL: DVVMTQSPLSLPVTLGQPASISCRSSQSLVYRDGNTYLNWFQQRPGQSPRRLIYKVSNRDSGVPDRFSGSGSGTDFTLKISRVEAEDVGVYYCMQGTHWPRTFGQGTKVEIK

Target: T1, SulfoTyr C4 peptide
Assay: ELISA, 50 nM mAb
Protocol: (§1) Recombinant PSGL-1-hFc1 chimera protein consisting of PSGL-1's extracellular domain (ECD) served as a positive control. […] Primary antibody was added (25 ul per well) in duplicate at 50 nM in assay buffer (blocking buffer containing 0.05% Tween®20) into test and control (just blocked) wells and the plate incubated for 45 min at 37° C.

Binder | binding normalized to PSGL-1
B1 | 0.07
B2 | 0.35
B3 | 0.05
B4 | 0.61
B5 | 0.83

Target: T2, Sulfotyr fibrinogen γ peptide
Assay: ELISA, 50 nM mAb
Protocol: as §1

Binder | binding normalized to PSGL-1
B1 | 0.09
B2 | 0.3
B3 | 0.09
B4 | 0.59
B5 | 0.85

target: T3, Recombinant human PSGL-1(ECD)-hFc1 (R&D …); assay: ELISA, 50 nM mAb
Protocol: as §1

Binder | A450nm [A450nm]
B2 | 1.96
B3 | 2.65
B4 | 2.28
B5 | 2.32

target: T11, Human complement C4 protein (Millipore Sigma, Cat. 204886) (human, UniProt P0C0L4 20-675; P0C0L4 680-1446; P0C0L4 1454-1744, limits assumed, natural sulfotyrosines); assay: ELISA, 50 nM mAb
T11 construct: mature
Protocol: as §1

T11 sequence (P0C0L4 20-675 limits assumed, form in doubt, chain 1 of 3): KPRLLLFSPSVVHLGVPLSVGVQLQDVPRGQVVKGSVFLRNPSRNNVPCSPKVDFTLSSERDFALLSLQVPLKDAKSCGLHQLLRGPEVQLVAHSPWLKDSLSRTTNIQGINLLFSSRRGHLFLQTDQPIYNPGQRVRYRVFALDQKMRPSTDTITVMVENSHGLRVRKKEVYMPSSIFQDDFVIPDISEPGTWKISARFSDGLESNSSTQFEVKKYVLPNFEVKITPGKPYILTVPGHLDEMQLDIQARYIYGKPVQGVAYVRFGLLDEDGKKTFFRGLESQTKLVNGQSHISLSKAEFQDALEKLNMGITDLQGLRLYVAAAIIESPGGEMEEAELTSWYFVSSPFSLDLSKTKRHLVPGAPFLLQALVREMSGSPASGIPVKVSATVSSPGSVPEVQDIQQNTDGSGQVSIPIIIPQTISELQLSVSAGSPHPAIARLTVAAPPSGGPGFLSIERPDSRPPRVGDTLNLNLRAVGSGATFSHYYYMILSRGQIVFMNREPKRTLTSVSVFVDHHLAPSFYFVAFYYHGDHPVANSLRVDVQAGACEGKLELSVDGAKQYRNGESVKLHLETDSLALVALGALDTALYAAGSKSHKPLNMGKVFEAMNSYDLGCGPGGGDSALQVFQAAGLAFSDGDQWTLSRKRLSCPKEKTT
T11 sequence (P0C0L4 680-1446 limits assumed, form in doubt, chain 2 of 3): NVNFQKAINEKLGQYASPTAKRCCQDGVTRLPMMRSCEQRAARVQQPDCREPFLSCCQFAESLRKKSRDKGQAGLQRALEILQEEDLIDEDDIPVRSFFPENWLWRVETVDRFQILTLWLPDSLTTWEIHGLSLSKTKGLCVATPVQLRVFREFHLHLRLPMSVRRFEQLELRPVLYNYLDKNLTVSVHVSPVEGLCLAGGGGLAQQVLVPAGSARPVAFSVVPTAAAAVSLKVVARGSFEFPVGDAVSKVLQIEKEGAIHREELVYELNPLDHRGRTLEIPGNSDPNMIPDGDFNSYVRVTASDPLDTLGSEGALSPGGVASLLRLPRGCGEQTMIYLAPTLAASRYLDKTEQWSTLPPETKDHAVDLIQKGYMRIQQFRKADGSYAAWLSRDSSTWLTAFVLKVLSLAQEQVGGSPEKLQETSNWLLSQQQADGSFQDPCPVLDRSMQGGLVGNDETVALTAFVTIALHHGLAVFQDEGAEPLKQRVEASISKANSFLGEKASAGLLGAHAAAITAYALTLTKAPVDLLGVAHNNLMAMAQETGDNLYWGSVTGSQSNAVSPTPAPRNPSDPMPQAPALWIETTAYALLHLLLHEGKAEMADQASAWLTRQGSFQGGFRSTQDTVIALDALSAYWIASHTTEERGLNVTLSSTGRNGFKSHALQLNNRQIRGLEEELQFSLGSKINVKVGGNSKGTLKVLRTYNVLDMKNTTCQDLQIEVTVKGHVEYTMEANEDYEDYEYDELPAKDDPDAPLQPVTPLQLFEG
T11 sequence (P0C0L4 1454-1744 limits assumed, form in doubt, chain 3 of 3): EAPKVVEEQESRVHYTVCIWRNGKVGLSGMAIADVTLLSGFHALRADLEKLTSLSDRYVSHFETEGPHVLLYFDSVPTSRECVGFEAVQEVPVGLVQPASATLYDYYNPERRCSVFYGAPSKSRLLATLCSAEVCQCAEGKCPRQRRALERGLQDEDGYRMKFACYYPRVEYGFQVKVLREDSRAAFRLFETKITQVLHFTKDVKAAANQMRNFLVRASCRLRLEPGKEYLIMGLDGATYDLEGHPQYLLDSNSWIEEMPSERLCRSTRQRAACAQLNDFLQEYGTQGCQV

Binder | binding normalized to PSGL-1
B1 | 0.79
B2 | 0.22
B3 | 0.32
B4 | 0.47
B5 | 0.94

target: T4, Human fibrinogen protein (ThermoFisher, …); assay: ELISA, 50 nM mAb
Protocol: as §1

Binder | binding normalized to PSGL-1 | binding result
B1 | 0.17 | –
B2 | -0.15 | no binding (tested: 50 nM)
B3 | 0.07 | –
B4 | 0.05 | –
B5 | 0.2 | –

Target: T5, SulfoCCK biotin peptide
Assay: ELISA, 50 nM mAb
Protocol: as §1

Binder | binding normalized to PSGL-1
B1 | 0.63
B2 | 0.25
B3 | 0.06
B4 | 0.23
B5 | 0.58

Target: T6, Sulfotyrosine CCR2b biotin peptide
Assay: ELISA, 50 nM mAb
Protocol: as §1

Binder | binding normalized to PSGL-1
B1 | 0.63
B2 | 0.26
B3 | 0.04
B4 | 0.27

Target: T7, Sulfotyrosine D6 biotin peptide
Assay: ELISA, 50 nM mAb
Protocol: as §1

Binder | binding normalized to PSGL-1
B1 | 0.11
B2 | 0.56
B3 | 0.26
B4 | 0.52
B5 | 0.75

Target: T8, Scrambled Y42,52,63(SO3) PSGL-1(42-62) …
Assay: ELISA, immobilized biotin peptide
Protocol: (§2) A typical ELISA was performed by coating high binding half-well plates (Corning Cat. #3690) with 3 ug/mL/25 ul per well of biotinylated N-terminal PSGL-1 peptides, which incorporated residues 42 to 62 of the protein, in PBS, pH 7.4, overnight at 4° C. The peptide was unmodified or contained sulfated tyrosine at all 3 tyrosine positions (46, 48, and 51) or at one position (tyr51) (Table 7).
(§3) PSGL-1 protein or peptide served as a positive control. […] […] […] For each antibody, duplicate values were averaged and average assay background was subtracted.

Binder | A450nm, 20 nM mAb [A450nm] | binding result
B1 | 0.03 | no binding (tested: 20 nM)
B5 | – | no binding (tested: 20 nM)

Target: T9, Biotin PSGL-1(42-62) peptide, unmodified
Assay: ELISA, immobilized biotin peptide
Protocol: as §2, §3

Binder | A450nm, 20 nM mAb [A450nm] | EC50 [nM]
B1 | 1.12 | –
B2 | – | ~0.05
B3 | – | ~0.05
B4 | – | 6.2
B5 | 0.26 | –

Target: T10, Biotin Y46,48,51(SO3) PSGL-1(42-62) …
Assay: ELISA, immobilized biotin peptide
Protocol: as §2, §3

Binder | A450nm, 20 nM mAb [A450nm] | EC50 [nM]
B1 | 2.67 | –
B2 | 2.8 | 0.07
B3 | 2.79 | 0.05
B4 | 2.61 | 0.16
B5 | 2.72 | –

target: T12, Cynomolgus PSGL-1(ECD)-hFc1 (cynomolgus macaque); assay: ELISA, 20 nM mAb on plate cyno PSGL-1(ECD)-Fc
T12 construct: also called Cyno PSGL1-Fc; Cyno PSGL-1(ECD)-Fc
Protocol: Antibody binding to plate-immobilized cyno PSGL-1(ECD) was determined either at one concentration (20 nM) or by generating full antibody binding curves (0.003-200 nM). A typical ELISA was performed by overnight coating at 4° C. with 3 ug/mL/25 ul per well of recombinant cyno PSGL-1(ECD) protein in PBS, pH 7.4, in high binding half-well plates (Corning Cat. #3690). […] Anti-PSGL-1 IgG in assay buffer (blocking buffer containing 0.05% tween 20) was added into test and control wells (20 nM/25 ul/well) and the plate incubated for 45 min at 37° C. […] The plate was incubated for 45 min at 37° C., and mAb bound to plate-immobilized target determined at A450 nm using HRP substrate (3,3′,5,5′-tetramethylbenzidine (TMB)). For each antibody, duplicate values were averaged and assay background subtracted.

Binder | A450nm [A450 nm]
B1 | 0.78
B2 | 1.77
B3 | 2.11
B4 | 0.39
B5 | 0.83
